# In US20180326085A1 (Merck KGaA, published 2018):
# Legend:
# [1] = molecular target: T1, c-MET and EGFR co-expressed on cells (human, UniProt P08581;P00533); assay: flow cytometry, HepG2 cells (c-MET+ EGFR+)
# T1 construct: endogenous receptor on the cell surface; not a complex: two separate receptors on the same cell; used as target only for bispecific c-MET x EGFR molecules, whose cell staining cannot be split between the two arms; also called cells that carry both receptors: NCI-H441, EBC-1, A431, MKN-45, A549, HepG2 (cell line under assay)
# c-MET on cells = molecular target: T2, c-MET on cells (human, UniProt P08581); assay: flow cytometry, SK-MEL2 cells (c-MET+ EGFR-)
# T2 construct: endogenous receptor on the cell surface; for A549 cells m4 is used; also called HGFR; on NCI-H441, EBC-1, A431, MKN-45, SK-MEL2 or HepG2 cells (cell line under assay)
# [2] = molecular target: T1, c-MET and EGFR co-expressed on cells; assay: flow cytometry, EBC-1 cells (c-MET+++ EGFR++)
# [3] = molecular target: T1, c-MET and EGFR co-expressed on cells; assay: flow cytometry, A431 cells (c-MET+ EGFR+++)
# [4] = molecular target: T1, c-MET and EGFR co-expressed on cells; assay: flow cytometry, A549 cells (c-MET+ EGFR++)
# [5] = molecular target: T1, c-MET and EGFR co-expressed on cells; assay: flow cytometry, MKN-45 cells (c-MET+++ EGFR++)
# [6] = molecular target: T3, EGFR (soluble extracellular domain) (human, UniProt P00533); assay: BLI (Octet), antibody on anti-human Fc biosensors, soluble EGFR ECD as analyte
# T3 construct: soluble extracellular domain; also called Human EGFR extracellular domain, R&D Systems 1095-ER
# [7] = molecular target: T4, biotinylated recombinant human c-MET ECD (HGFR extracellular domain) (human, UniProt P08581 25-932, biotinylated (sites not given)); assay: BLI (Octet), antibody on anti-human Fc biosensors, soluble c-MET ECD as analyte
# T4 construct: extracellular domain; also called human c-MET ECD-His
MFI at 100 nM [1],MFI at 100 nM (c-MET on cells),MFI at 100 nM [2],MFI at 100 nM [3],MFI at 100 nM [4],MFI at 100 nM [5],Kd [6] [nM],koff [6] [s⁻¹],kon [6] [M⁻¹ s⁻¹],Kd [7] [nM],koff [7] [s⁻¹],kon [7] [M⁻¹ s⁻¹],Binder
348,213,1960,1430,328,1280,,,,,,,"B10v5x425 (bispecific antibody, V domains shown, c-MET x EGFR SEED bispecific) VL (c-MET arm): EPVLTQPPSVSVAPGETATIPCGGDSLGSKIVHWYQQRPGQAPLLVVYDDAARPSGIPERFSGSKSGTTATLTISSVEAGDEADYFCQVYDYHSDVEVFGGGTKLTVLGQPKAA VH (c-MET arm): not shown VL (EGFR arm): DIQMTQSPSSLSASVGDRVTITCSASSSVTYMYWYQQKPGKAPKLLIYDTSNLASGVPSRFSGSGSGTDYTFTISSLQPEDIATYYCQQWSSHIFTFGQGTKVEIKR VH (EGFR arm): QVQLVQSGAEVKKPGASVKVSCKASGYTFTSHWMHWVRQAPGQGLEWIGEFNPSNGRTNYNEKFKSKATMTVDTSTNTAYMELSSLRSEDTAVYYCASRDYDYDGRYFDYWGQGTLVTVSS"
101,25,361,1120,270,1260,,,,,,,"B10x425 (bispecific antibody, V domains shown, c-MET x EGFR SEED bispecific) VL (c-MET arm): QSVLTQPPSTSGTPGQRVTISCFGSSSNVGVNTVNWYRQLPGTAPKLLIYDNNLRPSGVPERFSGSKSGTSASLAITGLQAEDEGDYYCQSYDSSLSDVVFGGGTKLTVLGQPKAG VH (c-MET arm): not shown VL (EGFR arm): DIQMTQSPSSLSASVGDRVTITCSASSSVTYMYWYQQKPGKAPKLLIYDTSNLASGVPSRFSGSGSGTDYTFTISSLQPEDIATYYCQQWSSHIFTFGQGTKVEIKR VH (EGFR arm): QVQLVQSGAEVKKPGASVKVSCKASGYTFTSHWMHWVRQAPGQGLEWIGEFNPSNGRTNYNEKFKSKATMTVDTSTNTAYMELSSLRSEDTAVYYCASRDYDYDGRYFDYWGQGTLVTVSS"
,,,,,,12,0.0078,640000,,,,"matuzumab (425) (antibody, V domains shown) VH: QVQLVQSGAEVKKPGASVKVSCKASGYTFTSHWMHWVRQAPGQGLEWIGEFNPSNGRTNYNEKFKSKATMTVDTSTNTAYMELSSLRSEDTAVYYCASRDYDYDGRYFDYWGQGTLVTVSS VL: DIQMTQSPSSLSASVGDRVTITCSASSSVTYMYWYQQKPGKAPKLLIYDTSNLASGVPSRFSGSGSGTDYTFTISSLQPEDIATYYCQQWSSHIFTFGQGTKVEIKG"
164,132,1370,1350,268,1450,,,,,,,"CS06x425 (bispecific antibody, V domains shown, c-MET x EGFR SEED bispecific) VL (c-MET arm): QLVLTQSPSVSVAPGKTARITCGGNNIRNVGVHWYQKKPGQAPILVVYDDDDRPSGVPERFSGSNSGNTATLTISRVEAGDEADYYCQVWDSATDQRVFGGGTKLTVLGQPKAG VH (c-MET arm): QVQLQQSGAEVKKPGSSAKVSCKASGGTFSSNAISWVRQAPGQGLEWMGGIIPIFGTAIYAQKFQGRVTITADESTSTAYMELSSLRSEDTAVYYCARDQRGYYYYYYYGMDVWGQGTTVTVSS VL (EGFR arm): DIQMTQSPSSLSASVGDRVTITCSASSSVTYMYWYQQKPGKAPKLLIYDTSNLASGVPSRFSGSGSGTDYTFTISSLQPEDIATYYCQQWSSHIFTFGQGTKVEIKR VH (EGFR arm): QVQLVQSGAEVKKPGASVKVSCKASGYTFTSHWMHWVRQAPGQGLEWIGEFNPSNGRTNYNEKFKSKATMTVDTSTNTAYMELSSLRSEDTAVYYCASRDYDYDGRYFDYWGQGTLVTVSS"
793,457,2280,1290,383,1270,4.7,0.017,3.6e+06,0.37,0.00015,400000,"B10v5x225-M (bispecific c-MET x EGFR SEEDbody) (bispecific antibody, V domains shown, SEEDbody format (IgG1 hinge-CH2-SEED CH3)) VH 1: not shown VL 1: EPVLTQPPSVSVAPGETATIPCGGDSLGSKIVHWYQQRPGQAPLLVVYDDAARPSGIPERFSGSKSGTTATLTISSVEAGDEADYFCQVYDYHSDVEVFGGGTKLTVLGQPKAA VH 2: EVQLVQSGAEVKKPGASVKVSCKASGFSLTNYGVHWMRQAPGQGLEWIGVIWSGGNTDYNTPFTSRVTITSDKSTSTAYMELSSLRSEDTAVYYCARALTYYDYEFAYWGQGTLVTVSS VL 2: DIQMTQSPSSLSASVGDRVTITCRASQSIGTNIHWYQQKPGKAPKLLIKYASESISGVPSRFSGSGYGTDFTLTISSLQPEDVATYYCQQNYNWPTTFGQGTKVEIK"
254,188,2048,890,212,1530,,,,,,,"CS06x225-L (bispecific antibody, V domains shown, c-MET x EGFR SEED bispecific) VL (c-MET arm): QLVLTQSPSVSVAPGKTARITCGGNNIRNVGVHWYQKKPGQAPILVVYDDDDRPSGVPERFSGSNSGNTATLTISRVEAGDEADYYCQVWDSATDQRVFGGGTKLTVLGQPKAG VH (c-MET arm): QVQLQQSGAEVKKPGSSAKVSCKASGGTFSSNAISWVRQAPGQGLEWMGGIIPIFGTAIYAQKFQGRVTITADESTSTAYMELSSLRSEDTAVYYCARDQRGYYYYYYYGMDVWGQGTTVTVSS VL (EGFR arm): DIQMTQSPSSLSASVGDRVTITCRASQSIGTNIHWYQQKPGKAPKLLIKYASESISGVPSRFSGSGYGTDFTLTISSLQPEDVATYYCQQNNNWPTTFGQGTKVEIK VH (EGFR arm): EVQLVQSGAEVKKPGASVKVSCKASGFSLTNYGVHWMRQAPGQGLEWIGVIWRGGNTDYNTPFTSRVTITSDKSTSTAYMELSSLRSEDTAVYYCARALTYYDYEFAYWGQGTLVTVSS"
85,23,434,947,192,1220,,,,,,,"B10x225-L (bispecific antibody, V domains shown, c-MET x EGFR SEED bispecific; also called 225L, B10) VL (c-MET arm): QSVLTQPPSTSGTPGQRVTISCFGSSSNVGVNTVNWYRQLPGTAPKLLIYDNNLRPSGVPERFSGSKSGTSASLAITGLQAEDEGDYYCQSYDSSLSDVVFGGGTKLTVLGQPKAG VH (c-MET arm): not shown VL (EGFR arm): DIQMTQSPSSLSASVGDRVTITCRASQSIGTNIHWYQQKPGKAPKLLIKYASESISGVPSRFSGSGYGTDFTLTISSLQPEDVATYYCQQNNNWPTTFGQGTKVEIK VH (EGFR arm): EVQLVQSGAEVKKPGASVKVSCKASGFSLTNYGVHWMRQAPGQGLEWIGVIWRGGNTDYNTPFTSRVTITSDKSTSTAYMELSSLRSEDTAVYYCARALTYYDYEFAYWGQGTLVTVSS"
84,53,671,1480,572,1790,,,,,,,"B10x225-M (bispecific antibody, V domains shown, c-MET x EGFR SEED bispecific) VL (c-MET arm): QSVLTQPPSTSGTPGQRVTISCFGSSSNVGVNTVNWYRQLPGTAPKLLIYDNNLRPSGVPERFSGSKSGTSASLAITGLQAEDEGDYYCQSYDSSLSDVVFGGGTKLTVLGQPKAG VH (c-MET arm): not shown VL (EGFR arm): DIQMTQSPSSLSASVGDRVTITCRASQSIGTNIHWYQQKPGKAPKLLIKYASESISGVPSRFSGSGYGTDFTLTISSLQPEDVATYYCQQNYNWPTTFGQGTKVEIK VH (EGFR arm): EVQLVQSGAEVKKPGASVKVSCKASGFSLTNYGVHWMRQAPGQGLEWIGVIWSGGNTDYNTPFTSRVTITSDKSTSTAYMELSSLRSEDTAVYYCARALTYYDYEFAYWGQGTLVTVSS"
330,236,1870,1170,264,1470,3.9,0.018,4.6e+06,0.21,0.00022,1.1e+06,"CS06x225-M (bispecific antibody, V domains shown, c-MET x EGFR SEED bispecific) VL (c-MET arm): QLVLTQSPSVSVAPGKTARITCGGNNIRNVGVHWYQKKPGQAPILVVYDDDDRPSGVPERFSGSNSGNTATLTISRVEAGDEADYYCQVWDSATDQRVFGGGTKLTVLGQPKAG VH (c-MET arm): QVQLQQSGAEVKKPGSSAKVSCKASGGTFSSNAISWVRQAPGQGLEWMGGIIPIFGTAIYAQKFQGRVTITADESTSTAYMELSSLRSEDTAVYYCARDQRGYYYYYYYGMDVWGQGTTVTVSS VL (EGFR arm): DIQMTQSPSSLSASVGDRVTITCRASQSIGTNIHWYQQKPGKAPKLLIKYASESISGVPSRFSGSGYGTDFTLTISSLQPEDVATYYCQQNYNWPTTFGQGTKVEIK VH (EGFR arm): EVQLVQSGAEVKKPGASVKVSCKASGFSLTNYGVHWMRQAPGQGLEWIGVIWSGGNTDYNTPFTSRVTITSDKSTSTAYMELSSLRSEDTAVYYCARALTYYDYEFAYWGQGTLVTVSS"
100,64,948,1980,454,1320,,,,,,,"B10x225-H (bispecific antibody, V domains shown, c-MET x EGFR SEED bispecific) VL (c-MET arm): QSVLTQPPSTSGTPGQRVTISCFGSSSNVGVNTVNWYRQLPGTAPKLLIYDNNLRPSGVPERFSGSKSGTSASLAITGLQAEDEGDYYCQSYDSSLSDVVFGGGTKLTVLGQPKAG VH (c-MET arm): not shown VL (EGFR arm): DIQMTQSPSSLSASVGDRVTITCRASQSIGTNIHWYQQKPGKAPKLLIKYASESISGVPSRFSGSGYGTDFTLTISSLQPEDVATYYCQQNNEWPNTFGQGTKVEIK VH (EGFR arm): EVQLVQSGAEVKKPGASVKVSCKASGFSLTNYGVHWMRQAPGQGLEWIGVIWSGGNTDYNTPFTSRVTITSDKSTSTAYMELSSLRSEDTAVYYCARALDYYDYEFAYWGQGTLVTVSS"
